{"source": "the supplement of paper PMC7125110", "parents": {"B1": {"name": "glmS ribozyme (parent)", "chain": "AUAAAAGCGCCAGAACUACAGAAAUGUAGUUGACGAGGAGGAGGUUUAUCGAAUUUUCGGCGGAUGCCUCCAAA"}}, "note": "± gives the standard error. Variants at the floor of the assay were thinned out.", "data": [{"variants_of": "B1", "assay": "self-cleavage kobs at 2500 uM GlcN6P; higher = faster cleavage; RNA array", "settings": "with glucosamine-6-phosphate", "summary_of_the_method": "(§1)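 Tiles of sequenced MiSeq chips were imaged over ~14 h at 37 °C. On them, barcoded ribozyme variants had been transcribed in situ by E. coli RNA polymerase and were tracked via a hybridised Cy3 probe while glucosamine-6-phosphate (40 μM to 10 mM) in HEPES/KCl/Mg(OAc)2 buffer flowed in. Per-tile medians, normalised to baseline and to non-cleaving reference variants, were fit to one- or two-exponential decays for kobs, and weighted Michaelis–Menten fits gave kcat and KM.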", "units": {"self-cleavage kobs at 2500 uM GlcN6P": "s⁻¹"}, "values": [{"variant": "G37A U56C", "self-cleavage kobs at 2500 uM GlcN6P": "0.000299 ± 7.3e-05"}, {"variant": "G40U C58A G60U", "self-cleavage kobs at 2500 uM GlcN6P": "< 1e-05"}, {"variant": "G32C U55A", "self-cleavage kobs at 2500 uM GlcN6P": "4.27e-05 ± 1.5e-05"}, {"variant": "A39U A53U C70G", "self-cleavage kobs at 2500 uM GlcN6P": "0.0003 ± 7.6e-05"}, {"variant": "A42G A48U A52G C70A", "self-cleavage kobs at 2500 uM GlcN6P": "< 1e-05"}, {"variant": "G35U U47A U55C", "self-cleavage kobs at 2500 uM GlcN6P": "< 1e-05"}, {"variant": "G35C A36G G40U C70U", "self-cleavage kobs at 2500 uM GlcN6P": "< 1e-05"}, {"variant": "G38A C50G U69G", "self-cleavage kobs at 2500 uM GlcN6P": "6.3e-05 ± 1.7e-05"}, {"variant": "G32U G37A G63C", "self-cleavage kobs at 2500 uM GlcN6P": "< 1e-05"}, {"variant": "U31G G38U A42U", "self-cleavage kobs at 2500 uM GlcN6P": "< 1e-05"}, {"variant": "G32C G37C U55C U65G", "self-cleavage kobs at 2500 uM GlcN6P": "< 1e-05"}, {"variant": "G37U U56C C67A", "self-cleavage kobs at 2500 uM GlcN6P": "< 1e-05"}, {"variant": "G40C U54G G66A", "self-cleavage kobs at 2500 uM GlcN6P": "0.00142 ± 0.00027"}, {"variant": "A39U G41U C50G", "self-cleavage kobs at 2500 uM GlcN6P": "< 1e-05"}, {"variant": "G41U A42C C70U", "self-cleavage kobs at 2500 uM GlcN6P": "0.000121 ± 2.6e-05"}, {"variant": "G35C A52C C58U", "self-cleavage kobs at 2500 uM GlcN6P": "< 1e-05"}, {"variant": "G32U G41U G44A C70U", "self-cleavage kobs at 2500 uM GlcN6P": "< 1e-05"}, {"variant": "A33G A53C C58A", "self-cleavage kobs at 2500 uM GlcN6P": "< 1e-05"}, {"variant": "G41U U45C U56G", "self-cleavage kobs at 2500 uM GlcN6P": "7.1e-05 ± 3.2e-05"}, {"variant": "U30G C67U C71G", "self-cleavage kobs at 2500 uM GlcN6P": "0.00027 ± 9.4e-05"}, {"variant": "G32A G41C C68U", "self-cleavage kobs at 2500 uM GlcN6P": "< 1e-05"}, {"variant": "A33C U54C C67G C68G C70U", "self-cleavage kobs at 2500 uM GlcN6P": "< 1e-05"}, {"variant": "A33U A48U G59A C61U C71U", "self-cleavage kobs at 2500 uM GlcN6P": "< 1e-05"}, {"variant": "G37U A52U C71U", "self-cleavage kobs at 2500 uM GlcN6P": "< 1e-05"}, {"variant": "G37U G51C A52G C61U C67U", "self-cleavage kobs at 2500 uM GlcN6P": "< 1e-05"}, {"variant": "G38A A39C C50G C68A", "self-cleavage kobs at 2500 uM GlcN6P": "5.88e-05 ± 2.8e-05"}, {"variant": "G38C U49G U55A U65G", "self-cleavage kobs at 2500 uM GlcN6P": "< 1e-05"}, {"variant": "A33U A48G U55G", "self-cleavage kobs at 2500 uM GlcN6P": "< 1e-05"}, {"variant": "A39C U46A U47G A48C G63A", "self-cleavage kobs at 2500 uM GlcN6P": "< 1e-05"}, {"variant": "G35C G38U G59C U69G", "self-cleavage kobs at 2500 uM GlcN6P": "< 1e-05"}, {"variant": "G40U U46C A64G", "self-cleavage kobs at 2500 uM GlcN6P": "9.83e-05 ± 2.4e-05"}, {"variant": "U31A G41U C70U", "self-cleavage kobs at 2500 uM GlcN6P": "0.00307 ± 0.00088"}, {"variant": "A39C C67G C70A", "self-cleavage kobs at 2500 uM GlcN6P": "< 1e-05"}, {"variant": "A39G G40U U56A", "self-cleavage kobs at 2500 uM GlcN6P": "0.000452 ± 0.00011"}, {"variant": "A36U G44A A48C U57C", "self-cleavage kobs at 2500 uM GlcN6P": "< 1e-05"}, {"variant": "G32A G60A U65C", "self-cleavage kobs at 2500 uM GlcN6P": "< 1e-05"}, {"variant": "G32C A33C U47C A64C", "self-cleavage kobs at 2500 uM GlcN6P": "< 1e-05"}, {"variant": "U30G G43C A48C", "self-cleavage kobs at 2500 uM GlcN6P": "< 1e-05"}, {"variant": "A42U A48G A52G C58G", "self-cleavage kobs at 2500 uM GlcN6P": "< 1e-05"}, {"variant": "U30C G40C G62A", "self-cleavage kobs at 2500 uM GlcN6P": "< 1e-05"}, {"variant": "G32C A33C G63U G66A", "self-cleavage kobs at 2500 uM GlcN6P": "< 1e-05"}, {"variant": "G32U G35U A53G C58A", "self-cleavage kobs at 2500 uM GlcN6P": "< 1e-05"}, {"variant": "C34G G38A C70G", "self-cleavage kobs at 2500 uM GlcN6P": "5.16e-05 ± 2.4e-05"}, {"variant": "C34G U46A U47A U65C C68G", "self-cleavage kobs at 2500 uM GlcN6P": "< 1e-05"}, {"variant": "A33C A53G U55G", "self-cleavage kobs at 2500 uM GlcN6P": "0.000103 ± 2.8e-05"}, {"variant": "A36U G40U A64C", "self-cleavage kobs at 2500 uM GlcN6P": "< 1e-05"}, {"variant": "G37C U55G G63A C71G", "self-cleavage kobs at 2500 uM GlcN6P": "< 1e-05"}, {"variant": "A33C G38C A48U", "self-cleavage kobs at 2500 uM GlcN6P": "< 1e-05"}, {"variant": "G40U G43U U54A", "self-cleavage kobs at 2500 uM GlcN6P": "< 1e-05"}, {"variant": "G38C A39G G59A", "self-cleavage kobs at 2500 uM GlcN6P": "< 1e-05"}, {"variant": "G35A U46A A64G", "self-cleavage kobs at 2500 uM GlcN6P": "< 1e-05"}, {"variant": "G40U C50A U56A C67G C71U", "self-cleavage kobs at 2500 uM GlcN6P": "< 1e-05"}, {"variant": "A39U A48U C67G", "self-cleavage kobs at 2500 uM GlcN6P": "0.00017 ± 6.1e-05"}, {"variant": "G35C G40C C70U", "self-cleavage kobs at 2500 uM GlcN6P": "< 1e-05"}, {"variant": "G37U U56C G60C C61G", "self-cleavage kobs at 2500 uM GlcN6P": "< 1e-05"}, {"variant": "G35C C58G G60U U65C", "self-cleavage kobs at 2500 uM GlcN6P": "< 1e-05"}, {"variant": "C34U A52U A53G A64U C70U", "self-cleavage kobs at 2500 uM GlcN6P": "< 1e-05"}, {"variant": "G41U U45G U49A", "self-cleavage kobs at 2500 uM GlcN6P": "< 1e-05"}, {"variant": "G32A G38U A53C U55C G60C C71U", "self-cleavage kobs at 2500 uM GlcN6P": "< 1e-05"}, {"variant": "A33C G37A G60C", "self-cleavage kobs at 2500 uM GlcN6P": "< 1e-05"}, {"variant": "A33G U69G", "self-cleavage kobs at 2500 uM GlcN6P": "5.67e-05 ± 1.7e-05"}, {"variant": "C34A G35U G59U", "self-cleavage kobs at 2500 uM GlcN6P": "< 1e-05"}, {"variant": "G37C G44A G51U G59C", "self-cleavage kobs at 2500 uM GlcN6P": "< 1e-05"}, {"variant": "G32C G41C G43C C61A", "self-cleavage kobs at 2500 uM GlcN6P": "< 1e-05"}, {"variant": "G40C G60A G66A", "self-cleavage kobs at 2500 uM GlcN6P": "< 1e-05"}, {"variant": "G41U A42C C61A", "self-cleavage kobs at 2500 uM GlcN6P": "< 1e-05"}, {"variant": "A33G U47A A53G C70U", "self-cleavage kobs at 2500 uM GlcN6P": "< 1e-05"}, {"variant": "U31A G41U G59U", "self-cleavage kobs at 2500 uM GlcN6P": "< 1e-05"}, {"variant": "G40U U47G G51C U65A", "self-cleavage kobs at 2500 uM GlcN6P": "< 1e-05"}, {"variant": "U30G A42G G66U C71A", "self-cleavage kobs at 2500 uM GlcN6P": "4.6e-05 ± 2.2e-05"}, {"variant": "G37A U45A A52U G60A", "self-cleavage kobs at 2500 uM GlcN6P": "< 1e-05"}, {"variant": "G32C G35A A42U", "self-cleavage kobs at 2500 uM GlcN6P": "< 1e-05"}, {"variant": "A36U U65A C68U", "self-cleavage kobs at 2500 uM GlcN6P": "< 1e-05"}, {"variant": "U31C A36U U47C", "self-cleavage kobs at 2500 uM GlcN6P": "< 1e-05"}, {"variant": "A36G U55A U65G", "self-cleavage kobs at 2500 uM GlcN6P": "< 1e-05"}]}, {"variants_of": "B1", "assay": "self-cleavage kobs at 10000 uM GlcN6P; higher = faster cleavage; RNA array", "settings": "with glucosamine-6-phosphate", "summary_of_the_method": "as §1", "units": {"self-cleavage kobs at 10000 uM GlcN6P": "s⁻¹"}, "values": [{"variant": "G37A U56C", "self-cleavage kobs at 10000 uM GlcN6P": "0.000401 ± 5.4e-05"}, {"variant": "G32C U55A", "self-cleavage kobs at 10000 uM GlcN6P": "9.57e-05 ± 1.5e-05"}, {"variant": "A39U A53U C70G", "self-cleavage kobs at 10000 uM GlcN6P": "0.000276 ± 5e-05"}, {"variant": "G35C A52C C58U", "self-cleavage kobs at 10000 uM GlcN6P": "< 1e-05"}, {"variant": "A39G G40U U56A", "self-cleavage kobs at 10000 uM GlcN6P": "0.00056 ± 0.00013"}, {"variant": "C34G U46A U47A U65C C68G", "self-cleavage kobs at 10000 uM GlcN6P": "< 1e-05"}, {"variant": "A33C A53G U55G", "self-cleavage kobs at 10000 uM GlcN6P": "0.000163 ± 2.9e-05"}, {"variant": "G37C U55G G63A C71G", "self-cleavage kobs at 10000 uM GlcN6P": "< 1e-05"}, {"variant": "A33C G38C A48U", "self-cleavage kobs at 10000 uM GlcN6P": "< 1e-05"}, {"variant": "G40U G43U U54A", "self-cleavage kobs at 10000 uM GlcN6P": "< 1e-05"}, {"variant": "A39U A48U C67G", "self-cleavage kobs at 10000 uM GlcN6P": "0.000104 ± 1.6e-05"}, {"variant": "G40U U47G G51C U65A", "self-cleavage kobs at 10000 uM GlcN6P": "< 1e-05"}]}]}
